# Test results from the RNAGym collection of RNA variant scans (doi:10.1073/pnas.2313332121).
# This sample holds only a part of the variants without activity.
# B1: TPR 5TU (parent)
# chain: GGAUCUUCUCGAUCUAACAAAAAAGACAAAUCUGCCACAAAGCUUGAGAGCAUCUUCGGAUGCAGAGGCGGCAGCCUUCGGUGGCGCGAUAGCGCCAACGUUCUCAACUAUGACACGCAAAACGCGUGCUCCGUUGAAUGGAGUUUAUCAUG
# Variants of: B1
# Experiment: polymerase ribozyme fitness, log enrichment relative to wild type (log ratio); higher = more active; in vitro selection for triplet polymerase activity
# How it was run: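 To select mutant libraries of each subunit of a heterodimeric triplet polymerase ribozyme, built by PCR and transcribed, each was annealed with a biotinylated primer, partner subunit and triplets, then incubated frozen at −7 °C. Extended constructs were gel-excised, captured on streptavidin beads and amplified by RT-PCR, in one round carried out in triplicate. Illumina sequencing of input and output libraries kept genotypes with ≥10 input reads and ≥1 read per output. Fitness is the base-2 logarithm of genotype enrichment relative to wild-type enrichment, from inverse-variance-weighted replicate averages.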
row,Variant,polymerase ribozyme fitness (log ratio)
1,C18G U44A C96G G133A A137U,-4.04
2,A17U C57G C69A,-2.58
3,C18G A19C G88A G92U C95U U134A,-4.03
4,C18G A24G G50U U55A A106C C125A,≤ -4.2
5,A17U C32U G128U,≤ -4.2
6,A17U C36A C54U G74C A120U U144A,≤ -4.2
7,A17G U53A C79A G141C,≤ -4.2
8,C18G G34U C57U C96U A147U,-2.53
9,A17G G70A C85G,≤ -4.2
10,C18G A49U A119G,-1.83
11,C18G A113G U134A,-3.95
12,A17U C54A,-1.45
13,C18G A22G A23C C69A G86U,≤ -4.2
14,A17G G58A C93U U101G U139A,≤ -4.2
15,A17U A30C C38U U53G G58U C99U C132U,≤ -4.2
16,A17U A21U C43U G71A C75U C93A C114U A120U U151G,≤ -4.2
17,A17U C87A A98G C132U G136A,≤ -4.2
18,C18G G94A,-1.09
19,A17G G48U C87U A89U A119C,-2.96
20,A17U U104A A106U G141C,≤ -4.2
21,A17U C38A U53A G81C C95U U104G,-4

row,Variant,polymerase ribozyme fitness (log ratio)
1,C18G C114G A122G,-3.64
2,C18A A20U C27G A30U U56G A64U G84U U102C G112U G124C,≤ -4.2
3,A17U A29C A66C C95A C132G,≤ -4.2
4,C18U A29U A30U G70C C149G,≤ -4.2
5,A17U G92U U101G U127G U148A,-4.01
6,A17G U56A G62C G152A,-3.06
7,C18G C93U A98G A120C G141U,0.17
8,C18G A26C C54A G62A C76G C87A A97C A150U,≤ -4.2
9,A17U A24U C36A G59A U77G G83A A98U C105U C116G,≤ -4.2
10,A17U A49G C85U C116A,-0.0919
11,A17G G59A C85U G92C C103A A122U,≤ -4.2
12,C18G A41C C85A G126U,-0.946
13,A17U A19C G42U U56C C76A G88A,≤ -4.2
14,C18G C27U A40U C51U A52C C57G G88U C105U,≤ -4.2
15,A17U A30U G42A C95A A138G,≤ -4.2
16,A17U U31C G50A A64U C69A C99U,≤ -4.2
17,C18G U45A A121U,-2.73
18,A17U C87U G94C,-3.01
19,C18G U44G U55G G58C C93A,≤ -4.2
20,A17U C85G,-2.57
21,A17U G50C G68C C85G G94A A106U C123U U134A U135A,≤ -4.2

row,Variant,polymerase ribozyme fitness (log ratio)
1,A17G C43A C54U C93G,≤ -4.2
2,C18U A20U C103A G124A,-3.82
3,A17U A41U G86U A113C,≤ -4.2
4,A17U C95U C99A A107G G133U,≤ -4.2
5,C18A A23G A28C C43U A52C U146A,≤ -4.2
6,A17U A37G U82A U144A,-2.56
7,C18A U56A G58C G94A,-0.964
8,A17U C129G,-2.62
9,A17U G83A G86U A142C,≤ -4.2
10,C18G C43A A52C G71A A91U C95G U146C,≤ -4.2
11,A17U A22U A26G G34U C57U G59A C93U,≤ -4.2
12,C18G A19U G42C G50C U90G G92U,≤ -4.2
13,C18U A37U U144A,-1.92
14,C18U A37C G68A A107U C125A G140C,≤ -4.2
15,C18U A26U C75G G83A A122U G143A,-3.81
16,C18G A20C G34U U55G C118U C123U,-4.18
17,A17G G34A U56A G59A U78G,≤ -4.2
18,C18G A20C C32A A40C U53A A91G,≤ -4.2
19,A17U G59C G86C A113U,≤ -4.2
20,A17U A19G A22U C93A,-4.01
21,A17G C57U C96U U127C C131A G133U U146C,≤ -4.2

row,Variant,polymerase ribozyme fitness (log ratio)
1,A17U A21G A22C C38U A66U U82C G100A C125U,≤ -4.2
2,A17G G100U,-4.01
3,A17U A19C C87G A89U,≤ -4.2
4,C18A A29U G136A,≤ -4.2
5,A17U A30G G42U G81C C85U A122U,≤ -4.2
6,A17G G62C G81A,-1.76
7,A17G C96A A119U,-0.596
8,A17G G62U G68U C96A C105G U134G,≤ -4.2
9,A17U C35A C69G U78G G84A A91G C103A,≤ -4.2
10,C18G A26U C96A,-2.84
11,C18A U56A C85G C96A,-3.54
12,A17G C51U U55G C79U G83U C95A C118G U145C,≤ -4.2
13,A17G G84C,-1.85
14,C18G C85U U101C,-0.76
15,C18G G84U,-1.93
16,A17G C96A A97G U101C U148C,-3.67
17,A17U G58C C95U C99A,-1.96
18,A17U U55A,-1.08
19,A17U C87U,-1.75
20,C18G A40U,0.0147
21,A17U C54A G92U C149U,-2.92
